Reference: IntAct's records for PubMed 26235031

B1: Leucine-rich repeat transmembrane protein FLRT3 (Mus musculus), Q8BGT1 (parent)
chain: MISPAWSLFLIGTKIGLFFQVAPLSVVAKSCPSVCRCDAGFIYCNDRSLTSIPVGIPEDATTLYLQNNQINNVGIPSDLKNLLKVQRIYLYHNSLDEFPTNLPKYVKELHLQENNIRTITYDSLSKIPYLEELHLDDNSVSAVSIEEGAFRDSNYLRLLFLSRNHLSTIPGGLPRTIEELRLDDNRISTISSPSLHGLTSLKRLVLDGNLLNNHGLGDKVFFNLVNLTELSLVRNSLTAAPVNLPGTSLRKLYLQDNHINRVPPNAFSYLRQLYRLDMSNNNLSNLPQGIFDDLDNITQLILRNNPWYCGCKMKWVRDWLQSLPVKVNVRGLMCQAPEKVRGMAIKDLSAELFDCKDSGIVSTIQITTAIPNTAYPAQGQWPAPVTKQPDIKNPKLIKDQRTTGSPSRKTILITVKSVTPDTIHISWRLALPMTALRLSWLKLGHSPAFGSITETIVTGERSEYLVTALEPESPYRVCMVPMETSNLYLFDETPVCIETQTAPLRMYNPTTTLNREQEKEPYKNPNLPLAAIIGGAVALVSIALLALVCWYVHRNGSLFSRNCAYSKGRRRKDDYAEAGTKKDNSILEIRETSFQMLPISNEPISKEEFVIHTIFPPNGMNLYKNNLSESSSNRSYRDSGIPDSDHSHS
B2: Adhesion G protein-coupled receptor L3 (Mus musculus), Q80TS3 (parent)
chain: MWPPQLLILTMLLAPVVHGGKHNERHPALAAPLRHAERSPGGALPPRHLLQQPAAERSTAHRGQGPRGAARGVRGPGAPGAQIAAQAFSRAPIPMAVVRRELSCESYPIELRCPGTDVIMIESANYGRTDDKICDSDPAQMENIRCYLPDAYKIMSQRCNNRTQCAVVAGPDVFPDPCPGTYKYLEVQYECVPYKVEQKVFLCPGLLKGVYQSEHLFESDHQSGAWCKDPLQASDKIYYMPWTPYRTDTLTEYSSKDDFIAGRPTTTYKLPHRVDGTGFVVYDGALFFNKERTRNIVKFDLRTRIKSGEAIIANANYHDTSPYRWGGKSDIDLAVDENGLWVIYATEQNNGKIVISQLNPYTLRIEGTWDTAYDKRSASNAFMICGILYVVKSVYEDDDNEATGNKIDYIYNTDQSKDSLVDVPFPNSYQYIAAVDYNPRDNLLYVWNNYHVVKYSLDFGPLDSRSGPVHHGQVSYISPPIHLDSELERPPVRGISTTGSLGMGSTTTSTTLRTTTWNIGRSTTASLPGRRNRSTSTPSPAVEVLDDVTTHLPSAASQIPAMEESCEAVEAREIMWFKTRQGQVAKQPCPAGTIGVSTYLCLAPDGIWDPQGPDLSNCSSPWVNHITQKLKSGETAANIARELAEQTRNHLNAGDITYSVRAMDQLVGLLDVQLRNLTPGGKDSAARSLNKLQKRERSCRAYVQAMVETVNNLLQPQALNAWRDLTTSDQLRAATMLLDTVEESAFVLADNLLKTDIVRENTDNIQLEVARLSTEGNLEDLKFPENMGHGSTIQLSANTLKQNGRNGEIRVAFVLYNNLGPYLSTENASMKLGTEAMSTNHSVIVNSPVITAAINKEFSNKVYLADPVVFTVKHIKQSEENFNPNCSFWSYSKRTMTGYWSTQGCRLLTTNKTHTTCSCNHLTNFAVLMAHVEVKHSDAVHDLLLDVITWVGILLSLVCLLICIFTFCFFRGLQSDRNTIHKNLCISLFVAELLFLIGINRTDQPIACAVFAALLHFFFLAAFTWMFLEGVQLYIMLVEVFESEHSRRKYFYLVGYGMPALIVAVSAAVDYRSYGTDKVCWLRLDTYFIWSFIGPATLIIMLNVIFLGIALYKMFHHTAILKPESGCLDNINYEDNRPFIKSWVIGAIALLCLLGLTWAFGLMYINESTVIMAYLFTIFNSLQGMFIFIFHCVLQKKVRKEYGKCLRTHCCSGKSTESSIGSGKTSGSRTPGRYSTGSQSRIRRMWNDTVRKQSESSFITGDINSSASLNREGLLNNARDTSVMDTLPLNGNHGNSYSIAGGEYLSNCVQIIDRGYNHNETALEKKILKELTSNYIPSYLNNHERSSEQNRNMMNKLVNNLGSGSEDDAIVLDDAASFNHEESLGLELIHEESDAPLLPPRVYSTDNHQPHHYSRRRFPQDHSESFFPLLTDEHTEDLQSPHRDSLYTSMPALAGVPAADSVTTSTQTEAAAAKGGDAEDVYYKSMPNLGSRNHVHPLHAYYQLGRGSSDGFIVPPNKDGASPEGTSKGPAHLVTSL
partner: B1 chain

Variants of: B1
Conditions: with agrl3_mouse Adgrl3, Q80TS3

effect of a mutation on the interaction | Variant
decreasing interaction strength | F160A
disrupting interaction strength | F160N
decreasing interaction strength | R117T

Variants of: B2
Conditions: with flrt3_mouse Flrt3, Q8BGT1

effect of a mutation on the interaction | Variant
decreasing interaction strength | D332A
disrupting interaction strength | Y323A
